# Laboratory results published in the Immune Epitope Database (IEDB).
# pIC50, pKd: −log10 of the molar value.
# Key:
# HLA-A*02:01 [1] = assay: IEDB peptide-MHC binding, purified MHC/competitive/fluorescence; ≥ and ≤ were set here for values at or beyond the usual limits of such assays
# HLA-B*15:01 [2] = assay: as above
# HLA-B*48:01 = assay: IEDB peptide-MHC binding, purified MHC/direct/fluorescence; filed as Kd, often an IC50 or EC50 that approximates it; ≥ and ≤ were set here for values at or beyond the usual limits of such assays
# HLA-B*44:02 [3] = assay: IEDB peptide-MHC binding, purified MHC/competitive/radioactivity; filed as Kd, often an IC50 or EC50 that approximates it; ≥ and ≤ were set here for values at or beyond the usual limits of such assays
# HLA-B*44:03 = assay: as above
# HLA-A*24:02 = assay: IEDB peptide-MHC binding, purified MHC/competitive/fluorescence; ≥ and ≤ were set here for values at or beyond the usual limits of such assays
# HLA-B*15:03 = assay: IEDB peptide-MHC binding, purified MHC/competitive/radioactivity; filed as Kd, often an IC50 or EC50 that approximates it; ≥ and ≤ were set here for values at or beyond the usual limits of such assays; conditions: source organism: Vaccinia virus WR
# HLA-B*08:01 [4] = assay: as above; conditions: source organism: Vaccinia virus WR
# HLA-B*15:01 [5] = assay: as above; conditions: source organism: Vaccinia virus WR
# HLA-B*44:02 [6] = assay: IEDB peptide-MHC binding, purified MHC/direct/fluorescence; filed as Kd, often an IC50 or EC50 that approximates it; ≥ and ≤ were set here for values at or beyond the usual limits of such assays
# HLA-B*18:01 [7] = assay: as above; conditions: source organism: Dengue virus
# HLA-A*32:01 = assay: IEDB peptide-MHC binding, purified MHC/competitive/radioactivity; filed as Kd, often an IC50 or EC50 that approximates it; ≥ and ≤ were set here for values at or beyond the usual limits of such assays; conditions: source organism: Vaccinia virus WR
# HLA-A*30:01 = assay: as above; conditions: source organism: Vaccinia virus WR
# HLA-B*40:01 [8] = assay: as above; conditions: source organism: Dengue virus 1 Singapore/S275/1990
# HLA-A*03:01 [9] = assay: IEDB peptide-MHC binding, purified MHC/competitive/fluorescence; filed as Kd, often an IC50 or EC50 that approximates it; ≥ and ≤ were set here for values at or beyond the usual limits of such assays
# HLA-B*27:05 = assay: IEDB peptide-MHC binding, purified MHC/direct/fluorescence; filed as Kd, often an IC50 or EC50 that approximates it; ≥ and ≤ were set here for values at or beyond the usual limits of such assays; conditions: source organism: Salmonella enterica
# HLA-A*31:01 = assay: as above; conditions: source organism: Salmonella enterica
# HLA-B*40:01 [10] = assay: as above; conditions: source organism: Salmonella enterica
# HLA-A*69:01 = assay: as above; conditions: source organism: Salmonella enterica
# HLA-A*02:01 [11] = assay: as above
# HLA-A*01:01 = assay: as above; conditions: source organism: Escherichia coli
# HLA-A*26:01 [12] = assay: as above; conditions: source organism: Salmonella enterica
# HLA-A*24:03 = assay: as above; conditions: source organism: Salmonella enterica
# HLA-A*11:01 = assay: as above; conditions: source organism: Salmonella enterica
# HLA-B*08:01 [13] = assay: as above; conditions: source organism: Salmonella enterica
# HLA-A*03:01 [14] = assay: as above
# HLA-B*15:01 [15] = assay: as above; conditions: source organism: Salmonella enterica
# HLA-B*07:02 = assay: as above; conditions: source organism: Salmonella enterica
# HLA-B*58:01 = assay: as above; conditions: source organism: Salmonella enterica
# HLA-A*02:19 = assay: as above; conditions: source organism: Convict Creek 107 virus
# HLA-B*18:01 [16] = assay: IEDB peptide-MHC binding, purified MHC/competitive/fluorescence; filed as Kd, often an IC50 or EC50 that approximates it; ≥ and ≤ were set here for values at or beyond the usual limits of such assays; conditions: source organism: Orthohantavirus sinnombreense
# HLA-B*27:03 = assay: as above; conditions: source organism: Orthohantavirus sinnombreense
# HLA-A*26:01 [17] = assay: as above; conditions: source organism: Orthohantavirus sinnombreense
# HLA-B*39:01 = assay: as above; conditions: source organism: Orthohantavirus sinnombreense
# HLA-B*46:01 = assay: as above; conditions: source organism: Orthohantavirus sinnombreense
# HLA-B*15:17 = assay: as above; conditions: source organism: Orthohantavirus sinnombreense
# HLA-B*51:01 = assay: as above; conditions: source organism: Orthohantavirus sinnombreense
# HLA-B*57:01 = assay: as above; conditions: source organism: Orthohantavirus sinnombreense
# [18] = source organism: Zaire ebolavirus
# [19] = source organism: Dengue virus 2 Jamaica/1409/1983
# [20] = source organism: Dengue virus 1 Brazil/97-11/1997
# [21] = source organism: Dengue virus 1 Singapore/S275/1990
# [22] = source organism: Dengue virus 3 Martinique/1243/1999
# [23] = source organism: Vaccinia virus Copenhagen
# [24] = source organism: Sudan ebolavirus
# [25] = source organism: Dengue virus 4 Philippines/H241/1956
# [26] = source organism: Salmonella enterica
# [27] = source organism: Vaccinia virus WR
sequence,measurement,setting,value
FQQTNAMVT,pIC50,HLA-A*02:01 [1]; [18],4.96
same,pIC50,HLA-B*15:01 [2]; [18],4.44
RRLAATTEK,pKd,HLA-B*48:01; source organism: West Nile virus,≤ 4.70
LHHAYQGDY,pIC50,HLA-B*15:01 [2]; [18],≤ 3.69
EEEQTLTILI,pKd,HLA-B*44:02 [3]; [19],7.76
same,pKd,HLA-B*44:03; [19],6.89
VVNYEAGEW,pIC50,HLA-A*24:02; [18],≤ 4.12
same,pIC50,HLA-B*15:01 [2]; [18],≤ 3.93
SMFLMTATL,pIC50,HLA-B*15:01 [2]; source organism: Variola virus,5.95
SMKTVFQVF,pKd,HLA-B*15:03,8.42
same,pKd,HLA-B*08:01 [4],6.75
same,pKd,HLA-B*15:01 [5],8.80
KEAVEDERFW,pKd,HLA-B*44:02 [3]; [20],7.34
same,pKd,HLA-B*44:03; [20],6.52
AELTGYGTV,pKd,HLA-B*44:02 [6]; source organism: Dengue virus,≤ 4.70
same,pKd,HLA-B*18:01 [7],6.33
SEMIIPKIY,pKd,HLA-B*44:02 [3]; [21],8.06
same,pKd,HLA-B*44:03; [21],7.89
WKWFYKKYL,pKd,HLA-B*48:01; source organism: Campylobacter jejuni subsp. jejuni HB93-13,6.57
KKVYTFFKF,pKd,HLA-B*15:03,8.44
NERGKSLLF,pKd,HLA-B*44:02 [3]; [22],6.33
same,pKd,HLA-B*44:03; [22],6.91
MEDKTPVESW,pKd,HLA-B*44:02 [3]; [19],7.48
same,pKd,HLA-B*44:03; [19],7.15
VVANVIGLS,pIC50,HLA-A*02:01 [1]; [23],4.57
same,pIC50,HLA-B*15:01 [2]; [23],4.33
LYRPNIPLK,pKd,HLA-A*32:01,≤ 4.11
same,pKd,HLA-B*15:03,≤ 4.16
same,pKd,HLA-A*30:01,8.46
same,pKd,HLA-B*08:01 [4],≤ 4.48
same,pKd,HLA-B*15:01 [5],≤ 4.25
AENHHHATM,pKd,HLA-B*44:02 [3]; [21],7.56
same,pKd,HLA-B*40:01 [8],8.00
same,pKd,HLA-B*44:03; [21],6.94
KMSFLPIIF,pKd,HLA-A*32:01,8.17
same,pKd,HLA-B*15:03,10.10
CMKTFFGWK,pKd,HLA-A*03:01 [9]; source organism: Influenza A virus (A/Hong Kong/1774/99(H3N2)),7.45
RQMVNDMIF,pKd,HLA-B*15:03,8.90
EQFVGTNSI,pKd,HLA-B*15:03,6.71
RTRNMFRKK,pKd,HLA-B*15:03,≤ 4.29
same,pKd,HLA-A*30:01,10.05
FQLNDTIHL,pIC50,HLA-A*02:01 [1]; [24],5.82
same,pIC50,HLA-A*24:02; [24],4.43
same,pIC50,HLA-B*15:01 [2]; [24],4.30
YDEDNPYKTW,pKd,HLA-B*44:02 [3]; [20],6.33
GEGLHRLGY,pKd,HLA-B*44:02 [3]; [25],7.94
same,pKd,HLA-B*44:03; [25],7.75
WEGNPGRFW,pKd,HLA-B*44:02 [3]; [19],7.89
same,pKd,HLA-B*44:03; [19],7.05
LEFNTPFVF,pKd,HLA-B*15:03,7.98
KEEHNSTWHY,pKd,HLA-B*44:02 [3]; [22],6.74
same,pKd,HLA-B*44:03; [22],4.98
WTDLYTSMS,pKd,HLA-B*44:02 [6]; [26],≤ 4.70
same,pKd,HLA-B*27:05,≤ 4.70
same,pKd,HLA-A*31:01,≤ 4.70
same,pKd,HLA-B*40:01 [10],≤ 4.70
same,pKd,HLA-A*69:01,≤ 4.70
same,pKd,HLA-A*02:01 [11]; [26],≤ 4.70
same,pKd,HLA-A*01:01,7.09
same,pKd,HLA-A*26:01 [12],≤ 4.70
same,pKd,HLA-A*24:03,≤ 4.70
same,pKd,HLA-A*11:01,≤ 4.70
same,pKd,HLA-B*08:01 [13],≤ 4.70
same,pKd,HLA-A*03:01 [14]; [26],≤ 4.70
same,pKd,HLA-B*15:01 [15],≤ 4.70
same,pKd,HLA-B*07:02,≤ 4.70
same,pKd,HLA-B*58:01,≤ 4.70
VINRLGADL,pIC50,HLA-A*02:01 [1]; [27],≤ 4.12
same,pIC50,HLA-B*15:01 [2]; [27],≤ 3.98
ASTNLGSSF,pKd,HLA-B*15:03,6.79
NYLFGGFST,pIC50,HLA-A*02:01 [1]; source organism: Variola virus,4.63
same,pIC50,HLA-A*24:02; source organism: Variola virus,5.78
same,pIC50,HLA-B*15:01 [2]; source organism: Variola virus,≤ 3.54
IETPNELSF,pKd,HLA-B*15:03,6.54
ELYMYFNHV,pKd,HLA-B*15:03,6.38
same,pKd,HLA-B*08:01 [4],6.62
same,pKd,HLA-B*15:01 [5],5.88
KLHRYIDSM,pKd,HLA-A*02:19,≤ 4.70
same,pKd,HLA-A*02:01 [11]; source organism: Orthohantavirus andesense,7.47
same,pKd,HLA-A*03:01 [14]; source organism: Convict Creek 107 virus,≤ 4.70
same,pKd,HLA-B*18:01 [16],≤ 4.70
same,pKd,HLA-B*27:03,≤ 4.70
same,pKd,HLA-A*26:01 [17],≤ 4.70
same,pKd,HLA-B*39:01,≤ 4.70
same,pKd,HLA-B*46:01,≤ 4.70
same,pKd,HLA-B*15:17,≤ 4.70
same,pKd,HLA-B*51:01,≤ 4.70
same,pKd,HLA-B*57:01,≤ 4.70
KLLSHFYPA,pKd,HLA-A*32:01,6.89
same,pKd,HLA-B*15:03,8.27
same,pKd,HLA-A*30:01,5.48
same,pKd,HLA-B*08:01 [4],7.09
same,pKd,HLA-B*15:01 [5],7.41
FKINIFMAF,pKd,HLA-B*15:03,7.99
same,pKd,HLA-B*08:01 [4],4.97
LQYVHINEL,pKd,HLA-B*15:03,8.44
SQYANCSSI,pIC50,HLA-A*24:02; [23],≤ 4.08
same,pIC50,HLA-B*15:01 [2]; [23],5.13
KQYKFYNQI,pKd,HLA-A*32:01,4.97
same,pKd,HLA-B*15:03,6.92
same,pKd,HLA-A*30:01,5.87
same,pKd,HLA-B*08:01 [4],≤ 4.11
same,pKd,HLA-B*15:01 [5],5.18
CMIRWLGGI,pIC50,HLA-A*02:01 [1]; [27],6.37
same,pIC50,HLA-A*24:02; [27],5.40
same,pIC50,HLA-B*15:01 [2]; [27],4.52
RMLHLSQMH,pKd,HLA-A*03:01 [9]; source organism: Bacillus anthracis str. A0488,7.59
VGRVNPGTY,pIC50,HLA-A*24:02; source organism: Variola virus,5.26
same,pIC50,HLA-B*15:01 [2]; source organism: Variola virus,4.53
FINMTGNHF,pKd,HLA-B*15:03,7.47
same,pKd,HLA-B*15:01 [5],7.79
